Experiment: yeast display, Sf9 membrane polyspecificity reagent, FACS + sequencing; frameworks hold sequencing errors
How it was run: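 Genes from sorted yeast were amplified by colony PCR, read by MiSeq 2 × 250 sequencing and filtered on CDR length. These cells carried a synthetic nanobody library in Saccharomyces cerevisiae BJ5465 and were sorted by FACS into low and high (top ~1%) gates on anti-HA and streptavidin fluorescence. Polyreactivity is labelled according to the gate of origin.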

Sequence: QVQLVETGGGIVQAGGSLRLSCAASGSTFDGYVMGWYRQEPGKERELVAAISGSGGSTYYADSVKGRFTISRDNAKNTVYFELYSLKPEDTSVYYCAADSWWYDDYSEGDYWGQGTQVTVSS
- polyreactivity (PSR sort gate): low polyreactivity

Sequence: QVQLVETGGGIVQAGGSLSLSCAASGRIFSPYAMGWYRQAPGKERELVAAISYDDGITYYADSVKGRFTISRDNAKNTVYLQMISLKPEDTAVYYCAADSVTRPAGDYWGQGTQVTVSS
- polyreactivity (PSR sort gate): low polyreactivity

Sequence: QVQLVETGGGIVQARGRLRLSCAASVITFTGYAMGWYRPAPGKERELVAAITSGGGRTYYADSVKGRFTISRDNAKNTVYLLMNSLKPEDTAVYYCNARGQSRYGYWGQGTQVTVSS
- polyreactivity (PSR sort gate): high polyreactivity

Sequence: QVQLVETGGGLDQAGGSLRLSCAASGRTFLLYAMGWYRQAPGKERELVARITGRGGRTYYADSVKGRFTISRDNAKNTVYLQMNSLKPEDTAVYYCNAKGYQGQWERYDYWGQGTEVTVSS
- polyreactivity (PSR sort gate): high polyreactivity

Sequence: QVQLVETGGGLDQAGVSLRLSCAASGSIFGYNDMGWYRQAPGKERELVAAIDCSDDITYYADSVKGRFTISRDNAKNTVYLQMYSLKPEETAVYYCAAVYYYYQYWAHTYYAGMEYWGQGTQVTVSS
- polyreactivity (PSR sort gate): high polyreactivity

Sequence: QVQLVETGGGLVKAGGSLRLSCAASGITFSVYTMGWDRQAPGKERELVASITRSVGSTYYADSVKGRFTISRDNAKNTVYLQMNSLKPEDTAVYYCAARRTVVTGRYYWGQGTQVTVSS
- polyreactivity (PSR sort gate): high polyreactivity

Sequence: QVQLVETGGGLVKAGGSLRLSSAASGSIFVYYVMGWYRQAPGKERELVAAINSDGDGTYYADSVKGRFTISRDNAKNTVYLQMNSLKPEDTAVYYCAASAFTGVDTYGYGGQGTQVTVSS
- polyreactivity (PSR sort gate): low polyreactivity

Sequence: QVQLVETGGGLVPAGGSLRLSCAASGSTFQRYAMGWYRQAPGKERELVAAITWSGGSTKYADSVKGRFTISRDNAKNTVYLQMNSMKPEDTAVYYCARTYGSSRWGQGTQVTVSS
- polyreactivity (PSR sort gate): low polyreactivity

Sequence: QVQLVETGGGLVQAGGILRLSCAASGRIFGYNTMGWYRQAPGKERELVARISYDVDSTYYADSVKGRFTISRDNAKNTVYLQMNSLKPEDTAVYYCNARRSNLGSYIEYFGFDYWGQGTQVTVSS
- polyreactivity (PSR sort gate): low polyreactivity

Sequence: QVQLVETGGGLVQAGGSHRLSCAASGYIFFGNAMGWYRQAPGKERELVASIRWRGTSTYYADSVKGRFTISRDNAKNTGYLHMNSLKPEDTAVYYCAADVVRSNFYGTFLYDYDYWGQGTQVTVSS
- polyreactivity (PSR sort gate): low polyreactivity

Sequence: QVQLVETGGGLVQAGGSLRISCAASGLILDGYALGWYRQAPGKERELVAAITRSGGRTYYADSVKWRFTISRDNAKNTVYLQMNRLKPEDTAVYDCAALGWSGRYRYDYWGQGTLVTVSS
- polyreactivity (PSR sort gate): high polyreactivity

Sequence: QVQLVETGGGLVQAGGSLRISCAASGLTFYLYAMGWYRQSPGKERELVAAISSTGITNYADSVKGRFTISRDNAKNTVYLQMNSLNPEDTAVYYCNADYHPFFFEFNDWGQGTQVTVSS
- polyreactivity (PSR sort gate): high polyreactivity

Sequence: QVQLVETGGGLVQAGGSLRLICAASGSTFWRNAMGWYRQAPGKERELVATISKSGGRTYYADSVKGRFTISRDNAKNTVYLQMNRLKPEDTAVYYCAADQYWYKPYVGELYDYDYWGQGTQVTVSS
- polyreactivity (PSR sort gate): low polyreactivity

Sequence: QVQLVETGGGLVQAGGSLRLRCAASGSIFGGYAMGWYRQAPGKERELVAAISSGGSTYYADSVKGRFTISRDNAKNTVYLQMNSLKPEDTAVYYCATSTYAYRRNSYYYTRPRFGYWGQGTQVTVSS
- polyreactivity (PSR sort gate): high polyreactivity

Sequence: QVQLVETGGGLVQAGGSLRLSCAASGFIFGYYAMGWYRQAPGKERELVADITSGGSTYYADSVKGRFIISRDNAKNTVYLQMNSLKPEDTAVYYCNKAWELVSQSLYYTEYNYWGQGTQVTVSS
- polyreactivity (PSR sort gate): low polyreactivity

Sequence: QVQLVETGGGLVQAGGSLRLSCAASGFIFHPNTMGWYSPAPGKERELVAGISYSGGITYTDSVKGRFTISRDNAKNTVYLQMNSLKPEDTAVYYCSAGDKYHYYWGQGTQVTVSS
- polyreactivity (PSR sort gate): low polyreactivity

Sequence: QVQLVETGGGLVQAGGSLRLSCAASGFILSLYAMGWYRQAPGKERELVAAISRSGASTSYADSVKGRFTISRDNAKNSVYLQMNSLKPEDTAVYYCNVRRWPYSPGYDYWGQGTQVTVSS
- polyreactivity (PSR sort gate): high polyreactivity

Sequence: QVQLVETGGGLVQAGGSLRLSCAASGFTFEGYAMGWYRQAPGKERELVAAINGSGGSTYYADSVKGRFTISRDNAKNTVYLQMNSLKPEDTAVYYCAKTDAFYRGYGYWGQGTQVTVSS
- polyreactivity (PSR sort gate): low polyreactivity

Sequence: QVQLVETGGGLVQAGGSLRLSCAASGFTFPNAMGWYRQAPGKERELVATISSSGGSTYYADSVKGRFTISRDNAKNTVYLQMNSLKPEDTEVYYCAASTRQYWIYRAYRDEYWGQGTQVTVSS
- polyreactivity (PSR sort gate): low polyreactivity

Sequence: QVQLVETGGGLVQAGGSLRLSCAASGFTFTSYAMGWYRQAPGKERELVARITSSTGSTYYADSVKGRFTISRDNAKNTVDLQMNSMKPEDTAVYYCNARRQRNKSYNYWGQGTEVTVSS
- polyreactivity (PSR sort gate): high polyreactivity

Sequence: QVQLVETGGGLVQAGGSLRLSCAASGGIFYPNDMGWYRQAPGKEREFVAAITSSSGSTYADSVKGRFTISRDNAKNTVYLQMNSLKPEDTAVYYCATPPDDKGGGYLGYDYWGQGTQVTVSS
- polyreactivity (PSR sort gate): low polyreactivity

Sequence: QVQLVETGGGLVQAGGSLRLSCAASGITFRGYAMGWYRQAPGKERELVAAISGSGGTTYYADSVKGRFTISRDNAKNTVYLQMNSLKPEDTAVYYCNAKAVRGRYVWYDYWGQGTQVTVSS
- polyreactivity (PSR sort gate): high polyreactivity

Sequence: QVQLVETGGGLVQAGGSLRLSCAASGLSFGRNAIGSYRQAPGKERELVAAISRSGGRTSYADSVKGRFTISRDTAKNTVYLQMNSLKPEDTAVYYCAARSDVYTHDYWGQATQVTVSS
- polyreactivity (PSR sort gate): high polyreactivity

Sequence: QVQLVETGGGLVQAGGSLRLSCAASGRIFGYYTMGWYRPAPGKERELVADSSGGNTSYADSVKGRFTISRDNAKNTVYLQMNSLKPEDTAVYYCAKDLPGAWRGDDYWGQGTLVTVSS
- polyreactivity (PSR sort gate): low polyreactivity

Sequence: QVQLVETGGGLVQAGGSLRLSCAASGRIFLKYAMGWYRQAPGKERELVAAISRRGASTYYADSVKGRFTISRDNAKNTVYLQMNSLKPEDTAVYYCNARTSSGMDYWGQGTQVTVSS
- polyreactivity (PSR sort gate): high polyreactivity

Sequence: QVQLVETGGGLVQAGGSLRLSCAASGRIFRTNAMGWYRQAPGKEREFVAAISKDGGRTYYADSVKGRFTISRDNAKNTVYLQMNSLKPEDTAVYYCNARHRYYRYGYWGQGTQVTVSS
- polyreactivity (PSR sort gate): high polyreactivity

Sequence: QVQLVETGGGLVQAGGSLRLSCAASGRTFGYYTMGCYRQAPGKERELVAGISSAGSTNYADSVKGRFTISRDNAKNTVYLQMNSLKPADTAVYYCAARTYKVIQNNSWETYYYWGQGTQVTVSS
- polyreactivity (PSR sort gate): high polyreactivity

Sequence: QVQLVETGGGLVQAGGSLRLSCAASGRTFHRYAVGWYRQAPGKVRELVAAISFSGGSTYYADSVKGRFTISRDNAKNTVYLQMNSLKPEDTAVYYCAPRAVWSSWGRRYDSWGEGTQVTVSS
- polyreactivity (PSR sort gate): high polyreactivity

Sequence: QVQLVETGGGLVQAGGSLRLSCAASGRTFTGNAMGWYRQEPGKERELVADISSDGSTNYADSVKGRFTISRDNAKNTVYLQMNSLKPEDTAVYYCAADPFWTYYIDYDYWGQGTQVTVSS
- polyreactivity (PSR sort gate): low polyreactivity

Sequence: QVQLVETGGGLVQAGGSLRLSCAASGRTIGFYAMGWYRQAPGKERELVAAINRSGDSTYYADSVKGRFTISRDNAKNTVYLHMNSLKPEDTAVYYCAARRSTGYGYWGQGTQVTVSS
- polyreactivity (PSR sort gate): high polyreactivity

Sequence: QVQLVETGGGLVQAGGSLRLSCAASGSIFGPYAMAWYRQAPGKERELVAVISRSGGSTYYADSVKGRFTISRDNAKNTVYLQMNSLKPEDTAVYYCAAYRGPRADYYWGQGTQVTVSS
- polyreactivity (PSR sort gate): high polyreactivity

Sequence: QVQLVETGGGLVQAGGSLRLSCAASGSIFHYYAKGWYRQAPGKERELVAAISWSGVTTYYADSVKGRFTISRDNAKNTVYLQMNSLKPEDTAVYYCAADSWRYPYYYWGQGTQVNVSS
- polyreactivity (PSR sort gate): high polyreactivity

Sequence: QVQLVETGGGLVQAGGSLRLSCAASGSIFLVYAMGWNRPAPGKQRQVVAAIRWSGGSTYYADSVKGRFTISRDNAKKTVYLQMNSLKPEDTAVYYCNAGESYSVKGGPYDSDYWGQGTQVTVSS
- polyreactivity (PSR sort gate): low polyreactivity

Sequence: QVQLVETGGGLVQAGGSLRLSCAASGSIFTKYAMGRYRQAPGKERELVAAISWSGVSTYYADSVKGRFTISRDNAKNTVYLLMNSLKPEDTAVYYCNTRRYRSYGTTRYCFWGQGTQVTVSS
- polyreactivity (PSR sort gate): high polyreactivity

Sequence: QVQLVETGGGLVQAGGSLRLSCAASGSIFYAYAMGWYRQAPGKERELVATITSGGSTNYADSVKGRFTISRDNAKNTVYLQMNSLKPEDTAVYYCAVDISYSLGGGFGYDYWGQGTQVTVSS
- polyreactivity (PSR sort gate): low polyreactivity

Sequence: QVQLVETGGGLVQAGGSLRLSCAASGSTFAKYVMGWYRPAPGKERELVAAISRRGSSTYYADSEKGRFTISRDYAKNTVYLQMNSLKPEDTAVYYCAARFRYSGFEGMDYWGQGNQVTVSS
- polyreactivity (PSR sort gate): high polyreactivity

Sequence: QVQLVETGGGLVQAGGSLRLSCAASGSTFDYNAMGWYRQAPGKERELVASITESGDSTYYADSVKGRFTISRDNAKNTVYLQMNSLKPEDTAVYYCAATQVHWVYVVYYEYEYWGQGTQVTVSS
- polyreactivity (PSR sort gate): low polyreactivity

Sequence: QVQLVETGGGLVQAGGSLRLSCAASGSTFEYNAMGWYRQAPGKERALVAGISSGGSTYYADSVKGRFTISRDNAKNTVYLQMNSLKPEDTAVYYCATSEASFATWDRYTELDYWGQGTQVTVSS
- polyreactivity (PSR sort gate): low polyreactivity

Sequence: QVQLVETGGGLVQAGGSLRLSCAASGSTFGGYAMGWYRQAPGKERELVATITGGGSTNYADSVKGRFTISRDNAKNTVYLQMNSLKPEDSAVYYCAKVRTGQSRSVGYDYWGQGTQVTVSS
- polyreactivity (PSR sort gate): low polyreactivity

Sequence: QVQLVETGGGLVQAGGSLRLSCAASGSTFKGYAMGWYRQSPGKERELVAAISRSGTRTYYADSVKGRFTISRDNAKNTVYLQMNSLKPEDTAVSFCNKDTGYIAHDNENGRDYWGQGTQVTVSS
- polyreactivity (PSR sort gate): low polyreactivity

Sequence: QVQLVETGGGLVQAGGSLRLSCAASGSTFRFYVMGWYRQAPGKERELVAAISTSGGSTYYADSVKGRFTISRDTAKNTVYLQMNSLKPEDTAVYYCAADLIASLRPYYQYDYWGQGTQVTVSS
- polyreactivity (PSR sort gate): low polyreactivity

Sequence: QVQLVETGGGLVQAGGSLRLSCAASGSTFTRYGMGWYRQAPGKERELVADITTSGSSTYYADSVKGRFTISRDNAKNTVYLQMNSLKPEDTAVYYCAADWSSWGFDYWGQGTQVTVSS
- polyreactivity (PSR sort gate): low polyreactivity

Sequence: QVQLVETGGGLVQAGGSLRLSCAASGSTFYKYGMGWYRPAPGKERELVAAISGSGDSTYYADSVKGRFTISRDNAKNTVYLQMNSLKPEDTAVSYCNAGPWWFLHEYDYWGQGTQVTVSS
- polyreactivity (PSR sort gate): low polyreactivity
